{"source": "FireProtDB (doi:10.1021/bi991757+)", "proteins": {"B1": {"name": "Regulatory protein cro wild type, P03036 (protein)", "chain": "MQTLSERLKKRRIALKMTQTELATKAGVKQQSIQLIEAGVTKRPRFLFEIAMALNCDPVWLQYGTKRGKAA"}}, "conditions": "Enterobacteria phage 434, pH 6, Urea, CD, KH2PO4 25 mM, KCl 100 mM, reversible: yes, whole UniProt chain shown", "data": [{"protein": "B1", "values": [{"measurement": "denaturant m value", "setting": "5 °C", "result": 0.99, "unit": "kcal/mol/M"}, {"measurement": "denaturant midpoint (higher = more stable)", "setting": "5 °C", "result": 3.32, "unit": "M"}, {"measurement": "unfolding free energy", "setting": "5 °C", "result": 3.28, "unit": "kcal/mol"}, {"measurement": "denaturant m value", "setting": "15 °C", "result": 0.91, "unit": "kcal/mol/M"}, {"measurement": "denaturant midpoint (higher = more stable)", "setting": "15 °C", "result": 3.56, "unit": "M"}, {"measurement": "unfolding free energy", "setting": "15 °C", "result": 3.23, "unit": "kcal/mol"}, {"measurement": "denaturant m value", "setting": "20 °C", "result": 1.01, "unit": "kcal/mol/M"}, {"measurement": "denaturant midpoint (higher = more stable)", "setting": "20 °C", "result": 3.42, "unit": "M"}, {"measurement": "unfolding free energy", "setting": "20 °C", "result": 3.44, "unit": "kcal/mol"}, {"measurement": "denaturant m value", "setting": "25 °C", "result": 1, "unit": "kcal/mol/M"}, {"measurement": "denaturant midpoint (higher = more stable)", "setting": "25 °C", "result": 3.07, "unit": "M"}, {"measurement": "unfolding free energy", "setting": "25 °C", "result": 3.05, "unit": "kcal/mol"}]}]}
